For the test, the target named is IZN36 (HIV).

B1: D5 IgG (antibody, V domains shown)
VH: QVQLVQSGAEVRKPGASVKVSCKASGDTFSSYAISWVRQAPGQGLEWMGGIIPIFGTANYAQKFQGRVTITADESTSTAYMELSSLRSEDTAIYYCARDNPTLLGSDYWGKGTLVTVSS
VL: DIQMTQSPSTLSASIGDRVTITCRASEGIYHWLAWYQQKPGKAPKLLIYKASSLASGAPSRFSGSGSGTDFTLTISSLQPDDFATYYCQQYSNYPLTFGGGTKLEIK
Regarding B1, the IC50 (read off the curve) came out at 0.6 nM.

The record behind these values is US20070248613A1.
